The values below come from patent EP1106183A2.

For assay [1], the target named is human ErbB2 on BT474 human breast tumor cells (human) (UniProt P04626). As to the kind of experiment: cell-based or functional assay.
The target is the same in assay [2]. As to the kind of experiment: Scatchard analysis; 125I-labelled antibody on BT474 cell monolayers, 4 h on ice.

Broadly, the Kd is the equilibrium constant for the complex coming apart. In assay [1], “anti-ErbB2 IgG1κ murine monoclonal antibody 4D5” came in with a % apoptosis of BT474 cell population (Hoechst 33342 cell cycle analysis, 3 days) of 41.9% and a proportion of S-phase cells (BT474, 3 days) of 5.4%. The same substance returned a Kd in assay [2] of 6.5 nM.

In assay [1], “anti-ErbB2 IgG1κ murine monoclonal antibody 7C2” registered a % apoptosis of BT474 cell population (Hoechst 33342 cell cycle analysis, 3 days) of 60.5% and a proportion of S-phase cells (BT474, 3 days) of 64.9%.
